Measurements reported in paper PMC5667550 (SLAS discovery : advancing life sciences R & D, 2017).
Ends that are not written are not given here. * marks the point of attachment. Biotin = O=C1N[C@H]2[C@H](CS[C@H]2CCCCC(=O)*)N1

Biological target: Klebsiella pneumonia PriA protein fused to an N-terminal 6xHis purification tag (Klebsiella pneumonia, UniProt A6TGC5 1-731)
Assay: AlphaScreen or HTRF

Klebsiella pneumonia PriA protein fused to an N-terminal 6xHis purification tag, sequence (A6TGC5 whole entry, the tested form may be a part): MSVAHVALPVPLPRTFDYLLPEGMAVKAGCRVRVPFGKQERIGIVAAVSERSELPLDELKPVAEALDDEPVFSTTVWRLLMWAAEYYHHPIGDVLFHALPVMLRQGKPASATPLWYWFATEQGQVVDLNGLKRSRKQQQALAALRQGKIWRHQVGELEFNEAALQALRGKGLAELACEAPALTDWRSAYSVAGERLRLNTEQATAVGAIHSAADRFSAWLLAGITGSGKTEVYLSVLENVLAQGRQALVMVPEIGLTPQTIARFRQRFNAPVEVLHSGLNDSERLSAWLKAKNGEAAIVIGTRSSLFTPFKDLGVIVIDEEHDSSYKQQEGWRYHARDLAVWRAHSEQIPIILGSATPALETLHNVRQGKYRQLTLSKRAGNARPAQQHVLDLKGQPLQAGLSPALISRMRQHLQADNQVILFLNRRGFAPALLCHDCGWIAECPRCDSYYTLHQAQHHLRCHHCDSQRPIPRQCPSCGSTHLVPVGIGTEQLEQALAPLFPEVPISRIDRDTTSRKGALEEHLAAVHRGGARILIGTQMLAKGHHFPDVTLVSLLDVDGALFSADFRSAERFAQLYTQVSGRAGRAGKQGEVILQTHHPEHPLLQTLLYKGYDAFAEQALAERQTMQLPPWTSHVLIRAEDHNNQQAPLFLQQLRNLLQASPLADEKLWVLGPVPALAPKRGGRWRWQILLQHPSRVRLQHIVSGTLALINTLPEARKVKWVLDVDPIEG

B1: N-terminally biotinylated SSBct (peptide)
peptide: Biotin-WMDFDDDIPF
binding result: binds
